Test results taken from patent US20200347130A1 (JIANGSU HENGRUI MEDICINE, published 2020).

Legend:
[1] = biological target: T1, Full-length human CD96 on CHO-S cells (human, UniProt P40200 22-585); experiment: cell ELISA, fixed CD96-overexpressing CHO-S cells
T1 construct: also called CD96-CHOs; hCD96-CHOs
T1 sequence: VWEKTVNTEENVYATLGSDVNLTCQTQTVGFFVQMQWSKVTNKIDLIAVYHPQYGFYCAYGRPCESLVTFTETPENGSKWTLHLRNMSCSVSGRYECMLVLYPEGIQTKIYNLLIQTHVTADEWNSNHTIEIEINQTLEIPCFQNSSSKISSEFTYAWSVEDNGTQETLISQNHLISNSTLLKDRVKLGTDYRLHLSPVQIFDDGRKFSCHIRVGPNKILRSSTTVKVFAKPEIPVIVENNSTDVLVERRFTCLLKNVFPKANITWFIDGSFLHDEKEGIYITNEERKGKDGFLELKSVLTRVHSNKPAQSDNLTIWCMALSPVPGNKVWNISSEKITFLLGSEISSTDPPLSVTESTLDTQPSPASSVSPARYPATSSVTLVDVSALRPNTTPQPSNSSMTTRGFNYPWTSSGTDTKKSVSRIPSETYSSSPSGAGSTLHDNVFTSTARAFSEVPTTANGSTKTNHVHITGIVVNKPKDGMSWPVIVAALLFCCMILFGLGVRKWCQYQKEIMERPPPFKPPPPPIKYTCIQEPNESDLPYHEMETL
Description: The binding capacity of the anti-CD96 antibody was tested by binding experiments of the antibody to human CD96 protein overexpressing CHO-S cells. The full-length CD96 plasmid was transfected into CHO-S cells by electrotransfection, and cells were then screened for two weeks under pressure for the detection of the expression of CD96. After the over-expressing cells were fixed at the bottom of the 96-well plate, the density of the signal after adding the antibody was used to judge the binding activity of the antibody to CD96 overexpressing CHO-S cells. The specific experimental method is as follows:
The cells were seeded at a density of 9×10⁴/100 μL/well in a 96-well plate and cultured overnight. After aspirating the supernatant, the plate was washed once with PBS, subsequently, 100 μl/well immunostaining fixation solution (Biyuntian, P0098) was added and fixed for one hour at room temperature, and the plate was washed three times with PBS. Once the liquid was discarded, 250 μl/well of 5% skim milk (BD, 232100) blocking solution diluted with PBS was added, and the plate was blocked in an incubator at 37° C. for 2.5 hours. After blocking, the blocking solution was discarded, the plate was washed 4 times with PBST buffer (pH 7.4 PBS containing 0.05% tween-20), followed by diluting 50 μl/well of different concentrations of the antibodies (hybridoma purification antibody or humanized antibody) to be tested the plate was incubated in an incubator at 37° C. for 2 hours. After incubation, the plate was wash 4 times with PBST. […] After washing the plate 4 times with PBST, 50 μl/well of TMB chromogenic substrate (KPL, Cat No. 52-00-03) was added, the plate was incubated at room temperature for 10-25 min, followed by adding 50 μl/well of 1M H₂SO₄ to stop the reaction. The absorption value was read at 450 nm with a NOVOStar microplate reader, and the EC50 value of the CD96 antibodies to CD96 overexpressing CHO-S cells was calculated (see FIG. 1 and Table 15).

[2] = biological target: T2, CD96 extracellular region with His tag (CD96-His) (human, UniProt P40200 22-519); experiment: ELISA, CD96-His coated
T2 construct: also called CD96-ECD-His; Bio-CD96-His (biotin-labelled form)
T2 sequence: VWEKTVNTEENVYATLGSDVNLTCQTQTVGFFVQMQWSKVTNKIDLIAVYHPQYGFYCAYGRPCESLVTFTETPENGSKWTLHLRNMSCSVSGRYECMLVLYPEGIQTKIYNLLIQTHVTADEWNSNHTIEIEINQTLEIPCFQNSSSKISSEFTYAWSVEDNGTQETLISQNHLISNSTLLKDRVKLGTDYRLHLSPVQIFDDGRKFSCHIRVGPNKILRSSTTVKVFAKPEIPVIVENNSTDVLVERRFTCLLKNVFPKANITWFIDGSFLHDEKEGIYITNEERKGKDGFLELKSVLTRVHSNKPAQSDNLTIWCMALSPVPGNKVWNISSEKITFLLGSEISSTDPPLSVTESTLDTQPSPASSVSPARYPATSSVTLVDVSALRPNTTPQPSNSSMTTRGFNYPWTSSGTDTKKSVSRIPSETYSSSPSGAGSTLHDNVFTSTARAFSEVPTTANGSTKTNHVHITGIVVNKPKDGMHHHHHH
Description: The binding capacity of the anti-CD96 antibody was tested by ELISA to determine the binding of the antibody to human CD96 protein. The His-tagged CD96 fusion protein was used to coat the microtiter plate, and the intensity of the signal after adding with the antibody was used for evaluating the binding activity of the antibody and CD96. The specific experimental method is as follows:
CD96-His with the sequence of SEQ ID NO: 4 prepared in Embodiment 1 was diluted to a concentration of 2 μg/ml with PBS buffer (Shanghai Yuanpei Biotechnology Co., Ltd. Cat No. B320), pH 7.4, added to a 96-well microtiter plate (Corning, Cat No. CLS3590-100EA) at a volume of 50 μl/well, and placed in an incubator at 37° C. for 2 hours. After discarding the liquid, 250 μl/well of 5% skim milk (BD, Cat No. 232100) blocking solution diluted with PBS was added, and the plate was incubated at 37° C. for 2.5 hours or at 4° C. overnight (16-18 hours) for blocking. After blocking, the blocking solution was discarded, and the plate was washed 4 times with PBST buffer (pH 7.4 PBS containing 0.05% tween-20). 50 μl/well of different concentrations of the antibodies to be tested (hybridoma purification antibody or humanized antibody) diluted with sample dilution was added, and the plate was incubated in an incubator at 37° C. for 1 hour. […] After washing the plate 4 times with PBST, 50 μl/well of TMB chromogenic substrate (KPL, Cat No. 52-00-03) was added, and the plate was incubated at room temperature for 5-15 minutes, followed by adding 50 μl/well of 1M H₂SO₄ to stop the reaction. The absorption value was read at 450 nm with a NOVOStar microplate reader, and the EC50 value of the binding of CD96 antibody to human CD96 was calculated (see Table 13).

[3] = biological target: T2, CD96 extracellular region with His tag …; experiment: blocking cell ELISA: antibody premixed with Bio-CD96-His (0.5 ug/mL), binding to fixed CD155-CHO cells
Description: CD155-CHO cells (constructed by Shanghai Hengrui) were seeded in 96-well culture plates at a density of 9×10⁴/100 μL/well and cultured overnight. After aspirating the supernatant, the plate was washed once with PBS, 100 μl/well of immunostaining fixation solution (Biyuntian, Cat No. P0098) was added and fixed for one hour at room temperature, and the plate was washed three times with PBS. After discarding the liquid, 250 μl/well of 5% skim milk (BD, Cat No. 232100) blocking solution diluted with PBS was added, and the plate was blocked in an incubator at 37° C. for 2.5 hours. After blocking, the blocking solution was discarded, subsequently, the plate was washed 4 times with PBST buffer (pH 7.4 PBS containing 0.05% tween-20). 50 μl/well of antigen-antibody pre-incubation solution (gradient concentrations of the hybridoma antibody to be tested and CD96-Fc at a final concentration of 0.5 μg/mL were premixed at 37° C. for 30 minutes, or gradient concentrations of humanized antibody samples and Bio-CD96-His at a final concentration of 0.5 μg/mL were premixed at 37° C. for 30 minutes) (Biotin-labeled kit, Dongren Chemical, Cat No. LK03) was added, and the plate was incubated in an incubator at 37° C. for 2 hours. After incubation, the reaction solution in the microtiter plate was discarded, the plate was washed 4 times with PBST, and 50 μl/well of HRP-labeled goat anti-human secondary antibody (Jackson Immuno Research, Cat No. 109-035-003) diluted with sample dilution or HRP-labeled streptavidin diluted with sample dilution (Sigma, Cat No. 52438) was added, followed by incubating at 37° C. for 1 hour. After washing the plate 4 times with PBST, 50 μl/well of TMB chromogenic substrate (KPL, Cat No. 52-00-03) was added, the plate was incubated at room temperature for 10-20 minutes, followed by adding 50 μl/well of 1M H₂SO₄ to stop the reaction. The absorption value was read at 450 nm with a NOVOStar microplate reader, and the EC50 value of the effect of CD96 antibody on blocking the binding between the antigens and CD155-CHO cells was calculated (see FIG. 2 and Table 16).

EC50 [1]: 0.028 nM
EC50 [2]: 0.085 nM
IC50 [3]: 0.096 nM
B1: h1719-003 (antibody, V domains shown)
VH: EVTLKESGPVLVKPTETLTLTCTVSGFSLSSYGVSWVRQPPGKGLEWLGVIWGDGNTNYHSVLISRLTISKDTSKSQVVLTLTNMDPVDTATYYCAKNNYYGSRYGYPMDYWGQGTTVTVSS
VL: DIQMTQSPSSVSASVGDRVTITCKATQDVGTAVAWYQQKPGKAPKLLIYWASTRHTGVPSRFSGSGSGTDFTLTISSLQPEDFATYYCQQYGSSVLTFGGGTKVEIK
notes: also called M719-003
